The values that follow come from PMC11642874 (bioRxiv, 2024).

The target of series [1] is Human mitochondrial RNA polymerase (POLRMT) Δ42 (human, UniProt O00411 43-1230). The experiment in a line: cryo-EM structure.
In series [2] the target is T1, POLRMT-LSPDNA(−42to+9)-TFAM (P-D-T) complex (human, UniProt O00411 43-1230; Q00059 43-245). The experiment in a line: fluorescence polarisation. In general terms: Fluorescence polarisation rises when a labelled molecule tumbles more slowly, as on binding a larger partner.
T1 sequence (O00411 43-1230, one chain of several): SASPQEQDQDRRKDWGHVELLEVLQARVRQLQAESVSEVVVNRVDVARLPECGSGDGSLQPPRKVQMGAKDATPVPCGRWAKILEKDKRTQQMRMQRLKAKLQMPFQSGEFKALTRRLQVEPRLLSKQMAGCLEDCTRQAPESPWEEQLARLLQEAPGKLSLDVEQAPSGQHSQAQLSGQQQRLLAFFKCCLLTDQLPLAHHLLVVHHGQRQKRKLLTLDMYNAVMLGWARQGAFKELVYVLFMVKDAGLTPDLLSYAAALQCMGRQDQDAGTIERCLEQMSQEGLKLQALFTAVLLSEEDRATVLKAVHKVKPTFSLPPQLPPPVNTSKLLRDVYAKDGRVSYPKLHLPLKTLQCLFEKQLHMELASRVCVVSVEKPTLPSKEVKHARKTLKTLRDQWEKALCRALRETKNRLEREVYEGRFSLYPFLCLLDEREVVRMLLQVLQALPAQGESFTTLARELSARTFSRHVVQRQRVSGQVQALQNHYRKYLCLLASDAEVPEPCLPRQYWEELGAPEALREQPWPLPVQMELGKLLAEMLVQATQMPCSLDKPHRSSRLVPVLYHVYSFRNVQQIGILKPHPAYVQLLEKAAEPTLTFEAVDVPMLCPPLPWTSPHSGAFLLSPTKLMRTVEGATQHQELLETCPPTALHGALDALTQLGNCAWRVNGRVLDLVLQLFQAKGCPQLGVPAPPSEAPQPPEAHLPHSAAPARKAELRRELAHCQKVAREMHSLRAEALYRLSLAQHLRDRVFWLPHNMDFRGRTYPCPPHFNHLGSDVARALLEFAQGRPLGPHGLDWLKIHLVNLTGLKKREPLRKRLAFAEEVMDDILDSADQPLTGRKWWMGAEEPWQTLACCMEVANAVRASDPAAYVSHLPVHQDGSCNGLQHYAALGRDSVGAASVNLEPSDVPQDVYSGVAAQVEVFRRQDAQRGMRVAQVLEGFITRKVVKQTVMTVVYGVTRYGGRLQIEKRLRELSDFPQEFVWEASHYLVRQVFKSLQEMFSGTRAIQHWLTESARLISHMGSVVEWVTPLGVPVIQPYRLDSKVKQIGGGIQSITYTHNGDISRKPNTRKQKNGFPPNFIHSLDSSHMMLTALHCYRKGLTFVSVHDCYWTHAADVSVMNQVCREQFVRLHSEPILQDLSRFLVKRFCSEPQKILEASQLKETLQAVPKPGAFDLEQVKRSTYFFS
The target in series [3] is POLRMT Δ42;TFAM Δ42;TFB2M Δ59 (human;human;human, UniProt O00411;Q00059;Q9H5Q4 43-1230;43-246;60-396, ||). The experiment in a line: SEC and DLS.
Sequence of POLRMT Δ42;TFAM Δ42;TFB2M Δ59 (O00411 43-1230, stated change not applied, one chain of several): as the sequence (O00411 43-1230, one chain of several) above
Another series has as its target POLRMT Δ42;TFB2M Δ59 (human;human, UniProt O00411;Q9H5Q4 43-1230;60-396, |). Description: cryo-EM structure 3.15 A.
The target in series [4] is T1, POLRMT-LSPDNA(−42to+9)-TFAM (P-D-T) …. Description: fluorescence polarisation. This is another data set of the same source.
Series [5] addresses POLRMT Δ42;TFAM Δ42;TFB2M Δ41, Alexa488 (human;human;human, UniProt O00411;Q00059;Q9H5Q4 43-1230;43-246;42-396, ||). The experiment in a line: fluorescence polarization.

Sequence of Human mitochondrial RNA polymerase (POLRMT) Δ42 (O00411 43-1230, stated change not applied): as the sequence (O00411 43-1230, one chain of several) above
Sequence of POLRMT Δ42;TFAM Δ42;TFB2M Δ41, Alexa488 (O00411 43-1230, stated change not applied, one chain of several): as the sequence (O00411 43-1230, one chain of several) above
Sequence of POLRMT Δ42;TFB2M Δ59 (O00411 43-1230, stated change not applied, one chain of several): as the sequence (O00411 43-1230, one chain of several) above

B1: Human transcription factor 2 (TFB2M) Δ59 (natural protein, UniProt Q9H5Q4 60-396, looked up)
chain: PPRKASKASLDFKRYVTDRRLAETLAQIYLGKPSRPPHLLLECNPGPGILTQALLEAGAKVVALESDKTFIPHLESLGKNLDGKLRVIHCDFFKLDPRSGGVIKPPAMSSRGLFKNLGIEAVPWTADIPLKVVGMFPSRGEKRALWKLAYDLYSCTSIYKFGRIEVNMFIGEKEFQKLMADPGNPDLYHVLSVIWQLACEIKVLHMEPWSSFDIYTRKGPLENPKRRELLDQLQQKLYLIQMIPRQNLFTKNLTPMNYNIFFHLLKHCFGRRSATVIDHLRSLTPLDARDILMQIGKQEDEKVVNMHPQDFKTLFETIERSKDCAYKWLYDETLEDR
For the molecule B1, the binding result in series [1] is listed as “binds”.

B2: Human transcription factor 2 (TFB2M) SGG-AAA (natural protein, UniProt Q9H5Q4 60-396, looked up)
chain: PPRKASKASLDFKRYVTDRRLAETLAQIYLGKPSRPPHLLLECNPGPGILTQALLEAGAKVVALESDKTFIPHLESLGKNLDGKLRVIHCDFFKLDPRAAAVIKPPAMSSRGLFKNLGIEAVPWTADIPLKVVGMFPSRGEKRALWKLAYDLYSCTSIYKFGRIEVNMFIGEKEFQKLMADPGNPDLYHVLSVIWQLACEIKVLHMEPWSSFDIYTRKGPLENPKRRELLDQLQQKLYLIQMIPRQNLFTKNLTPMNYNIFFHLLKHCFGRRSATVIDHLRSLTPLDARDILMQIGKQEDEKVVNMHPQDFKTLFETIERSKDCAYKWLYDETLEDR
With B2, the binding result in series [2] is given as “binds”.

B3: LSP -43 to +13, -4 to +1 bubble (56 bp) (dsDNA)
DNA 1: ATGTGTTAGTTGGGGGGTGACTGTTAAAAGTGCATACCGAACAAAGATAAAATTTG
DNA 2: CAAATTTTATCTCCAGGCGGTATGCACTTTTAACAGTCACCCCCCAACTAACACAT
As to B3, the binding result in series [3] is “binds”.

B4: LSP bubble with pppGpGpA RNA (slipped IC3) (mixed)
DNA 1: ATGTGTTAGTTGGGGGGTGACTGTTAAAAGTGCATACCGAACAAAGATAAAATTTG
DNA 2: CAAATTTTATCTCCAGGCGGTATGCACTTTTAACAGTCACCCCCCAACTAACACAT
?: GGA
modifications: RNA 5' triphosphate
Regarding B4, the binding result with POLRMT Δ42;TFB2M Δ59 is listed as “binds”.

B5: Alexa488-Δ41 TFB2M (natural protein, human, UniProt Q9H5Q4 42-396, looked up)
chain: CGLSDSSPQLWPEPDFRNPPRKASKASLDFKRYVTDRRLAETLAQIYLGKPSRPPHLLLECNPGPGILTQALLEAGAKVVALESDKTFIPHLESLGKNLDGKLRVIHCDFFKLDPRSGGVIKPPAMSSRGLFKNLGIEAVPWTADIPLKVVGMFPSRGEKRALWKLAYDLYSCTSIYKFGRIEVNMFIGEKEFQKLMADPGNPDLYHVLSVIWQLACEIKVLHMEPWSSFDIYTRKGPLENPKRRELLDQLQQKLYLIQMIPRQNLFTKNLTPMNYNIFFHLLKHCFGRRSATVIDHLRSLTPLDARDILMQIGKQEDEKVVNMHPQDFKTLFETIERSKDCAYKWLYDETLEDR
modifications: Alexa Fluor 488 C5 maleimide label (labelling efficiency ~76%)
With B5, in series [4], the Kd worked out at 6.1 nM.

B6: Human transcription factor 2 (TFB2M) Y209A (natural protein, UniProt Q9H5Q4 21-396, looked up)
chain: GRFCILGSEAATRKHLPARNHCGLSDSSPQLWPEPDFRNPPRKASKASLDFKRYVTDRRLAETLAQIYLGKPSRPPHLLLECNPGPGILTQALLEAGAKVVALESDKTFIPHLESLGKNLDGKLRVIHCDFFKLDPRSGGVIKPPAMSSRGLFKNLGIEAVPWTADIPLKVVGMFPSRGEKRALWKLAADLYSCTSIYKFGRIEVNMFIGEKEFQKLMADPGNPDLYHVLSVIWQLACEIKVLHMEPWSSFDIYTRKGPLENPKRRELLDQLQQKLYLIQMIPRQNLFTKNLTPMNYNIFFHLLKHCFGRRSATVIDHLRSLTPLDARDILMQIGKQEDEKVVNMHPQDFKTLFETIERSKDCAYKWLYDETLEDR
With B6, in series [2], the binding result is on record as “binds”.

B7: Human transcription factor 2 (TFB2M) (GS)3-loop (natural protein, UniProt Q9H5Q4 21-396, looked up)
chain: GRFCILGSEAATRKHLPARNHCGLSDSSPQLWPEPDFRNPPRKASKASLDFKRYVTDRRLAETLAQIYLGKPSRPPHLLLECNPGPGILTQALLEAGAKVVALESDKTFIPHLESLGKNLDGKLRVIHCDFFKLDPGSGSGSGPPAMSSRGLFKNLGIEAVPWTADIPLKVVGMFPSRGEKRALWKLAYDLYSCTSIYKFGRIEVNMFIGEKEFQKLMADPGNPDLYHVLSVIWQLACEIKVLHMEPWSSFDIYTRKGPLENPKRRELLDQLQQKLYLIQMIPRQNLFTKNLTPMNYNIFFHLLKHCFGRRSATVIDHLRSLTPLDARDILMQIGKQEDEKVVNMHPQDFKTLFETIERSKDCAYKWLYDETLEDR
Consider B7, for which the binding result in series [2] was “binds”.

B8: Human mitochondrial transcription factor A (TFAM) Δ42 (natural protein, UniProt Q00059 43-245, looked up)
chain: SSVLASCPKKPVSSYLRFSKEQLPIFKAQNPDAKTTELIRRIAQRWRELPDSKKKIYQDAYRAEWQVYKEEISRFKEQLTPSQIMSLEKEIMDKHLKRKAMTKKKELTLLGKPKRPRSAYNVYVAERFQEAKGDSPQEKLKTVKENWKNLSDSEKELYIQHAKEDETRYHNEMKSWEEQMIEVGRKDLLRRTIKKQRKYGAEE
As to B8, the binding result in series [1] is on record as “binds”.

B9: LSP -42 to +9 duplex (dsDNA)
DNA 1: TGTGTTAGTTGGGGGGTGACTGTTAAAAGTGCATACCGCCAAAAGATAAAA
DNA 2: TTTTATCTTTTGGCGGTATGCACTTTTAACAGTCACCCCCCAACTAACACA
In the case of B9, the Kd in series [5] amounted to 6.1 nM.

Usually Kd stands for the equilibrium constant for the complex coming apart. Low readings indicate higher affinity, high ones lower affinity.
